In US20050202434:

Target: T1, metallo-beta-lactamase (beta-lactamase II) 5/B/6 (Bacillus cereus) (UniProt P14488)
T1 sequence: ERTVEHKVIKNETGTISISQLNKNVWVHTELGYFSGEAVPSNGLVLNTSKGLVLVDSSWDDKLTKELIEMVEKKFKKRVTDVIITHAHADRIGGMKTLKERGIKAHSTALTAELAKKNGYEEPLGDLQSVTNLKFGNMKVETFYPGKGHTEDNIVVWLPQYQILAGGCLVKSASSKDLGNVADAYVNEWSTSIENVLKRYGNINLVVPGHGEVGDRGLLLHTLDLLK
Assay: inhibition

Row | Sequence | activity (% control activity)
1 | GCGCCATATGCGCGCGNNNNNNNNNNNNNNNNNNNNNNNNNNNNNNCGCGCGGAGCTCGCG [initial random 61-mer pool] | 100
2 | ANCNANNNTTNNNTNGNNGNNCATNNNNAA [round 16 SELEX pool (consensus 30N)] | 47
